Experiments:
[1] = tryptophan fluorescence, urea dissociation of multimeric peptide complexes, 25 µM peptide
[2] = tryptophan fluorescence, urea dissociation of multimeric peptide complexes, 5 µM peptide
[3] = biological target: S. epidermidis delta-haemolysin (Staphylococcus epidermidis); experiment: tryptophan fluorescence, urea dissociation of multimeric peptide complexes, 25 µM peptide
[4] = biological target: S. epidermidis delta-haemolysin (Staphylococcus epidermidis); experiment: tryptophan fluorescence, urea dissociation of multimeric peptide complexes, 5 µM peptide

**Q.** Which results are given for S. epidermidis delta-haemolysin?
**A.** midpoint of urea unfolding curve (25 µM peptide) [1]: The midpoints of the unfolding curves of 5 µM and 25 µM were 2.14 and 3.20M urea; midpoint of urea unfolding curve (5 µM peptide) [2]: The midpoints of the unfolding curves of 5 µM and 25 µM were 2.14 and 3.20M urea

**Q.** With “S. epidermidis delta-haemolysin (peptide)” as the substance, how does the deltaG (H2O) (25 µM peptide) [3] read?
**A.** The deltaG (H2O) (25 µM peptide) was 1.57 kcal/mol.

**Q.** And the deltaG (H2O) (5 µM peptide) [4]?
**A.** Its deltaG (H2O) (5 µM peptide) is 1.43 kcal/mol.

Source: patent US20210244785A1
